Target: MN (Homo sapiens, UniProt Q16790)
Assay: Surface plasmon resonance (BIAcore) binding to MN protein
Design: The MN protein represents the entire extra-cellular domain of the protein with a C-terminal histag for purification; His tag (C); made in house; host or cells: HKB-11 (mammalian cell line)
Details: soluble MN, panning-derived full-length antibodies, read-out: Affinity (Kd)
Description: The binding interactions between MN protein and the antibodies of this invention were analyzed using surface plasmon resonance technology on a BIAcore 3000 instrument (BIAcore, Uppsala, Sweden). For the binding of full-length IgGs (1e4, 1aa1, and 3ee9), goat anti-human IgG Fc was covalently coupled to the CM5 biosensor chip at high density using a standard amine coupling kit (BIAcore, Uppsala, Sweden). A capture assay was then used to bind these IgG to the anti-human IgG Fc-immobilized surface, aiming for a 300 response unit BIAcore signal. […] After ligand binding, the flow rate was then increased to 25 μl/min and various concentrations of MN analyte (e.g., range of 50 nM to 1 nM) were flowed over the surface for 10 minutes such that the association phase could be monitored. […] The binding of Fabs to MN was similarly determined except that an anti-human-Fab IgG was immobilized onto the chip and used to capture the Fabs prior to the assessment of MN binding.
Binding interactions between HKB11-expressed human MN protein and human full-length anti-MN MAbs were analyzed using surface plasmon resonance technology on a BIAcore 3000 instrument (BIAcore, Uppsala, Sweden). […] After ligand binding, flow rate was increased to 25 ul/min and MN analyte (50 nM to 1 nM) was flowed over the surface for 10 min such that the association phase could be monitored. […]

Kd: 1 nM
B1: 3a4: anti-MN antibody; CDRs SEQ ID NOS: 60, 66, 73, 108, 110, and 112 (antibody, V domains shown)
VH: QVELVESGGGLVQPGGSLRLSCAASGFTFSDYSINWVRQAPGKGLEYVSNISYSGSSTYYADSVKGRFTISRDNSKNTLYLQMNSLRAEDTAVYYCARFKYSGGSDSWGQGTLVTVSS
VL: DIELTQPPSVSVAPGQTARISCSGDNLPDFYVHWYQQKPGQAPVLVISEDNKRPSGIPERFSGSNSGNTATLTISGTQAEDEADYYCSTYGYTYSYSVFGGGTKLTVL

Source: US20120301468A1, “ANTI-MN ANTIBODIES AND METHODS OF USING SAME” (BAYER HEALTHCARE LLC, priority 2005, published 2012)
